# Assay results as given in patent US20240150473A1, “MODULATION OF WNT SIGNALING IN GASTROINTESTINAL DISORDERS” (Surrozen Operating, Inc., priority 2021, published 2024).
# T1: Lrp6E3E4 domain (Homo sapiens, UniProt O75581)
# T1 sequence (O75581 631-1244 limits assumed): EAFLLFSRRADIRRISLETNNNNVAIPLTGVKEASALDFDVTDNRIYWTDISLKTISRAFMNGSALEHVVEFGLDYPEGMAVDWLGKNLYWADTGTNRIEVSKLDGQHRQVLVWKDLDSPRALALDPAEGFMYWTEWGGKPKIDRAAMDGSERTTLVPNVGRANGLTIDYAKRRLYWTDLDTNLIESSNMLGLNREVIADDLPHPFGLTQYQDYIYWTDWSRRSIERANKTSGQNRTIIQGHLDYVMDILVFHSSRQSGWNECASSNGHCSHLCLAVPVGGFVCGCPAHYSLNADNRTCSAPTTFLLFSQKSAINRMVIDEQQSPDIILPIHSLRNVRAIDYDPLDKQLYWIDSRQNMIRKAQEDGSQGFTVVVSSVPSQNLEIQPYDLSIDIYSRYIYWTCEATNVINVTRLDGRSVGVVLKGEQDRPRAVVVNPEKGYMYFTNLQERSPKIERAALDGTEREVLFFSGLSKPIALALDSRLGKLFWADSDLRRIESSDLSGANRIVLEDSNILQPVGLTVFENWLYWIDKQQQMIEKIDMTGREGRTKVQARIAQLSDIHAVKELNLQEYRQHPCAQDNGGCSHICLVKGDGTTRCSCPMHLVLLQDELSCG
# Tests used:
# [1] = target: T1, Lrp6E3E4 domain; assay: Bio-layer interferometry (Octet) binding kinetics of VHH26 constructs; settings: 1:1 binding model
# Method: These six humanized VHH26 variants H1 to H6 and the parental VHH26 were transiently expressed in Expi293 cells (at 80 mL scale) with a C-terminal hexa-histidine tag. Proteins were purified using His-Complete resin (Roche, USA) following standard procedures. Expression levels and homogeneity of VHH26 and its humanized variants were analyzed by SDS-PAGE and SEC (size-exclusion chromatography). […] Biotinylated LRP6E3E4 diluted to 50 nM in the running buffer (PBS, 0.05% Tween-20, 0.5% BSA, pH 7.2) were captured to the SA biosensor followed by dipping into wells containing the indicated VHH26 proteins at different concentrations in running buffer or into a well with only running buffer as a reference channel. KD for each binder was calculated by Octet System software, based on fitting to a 1:1 binding model. Kinetics values (Kon, Koff, KD) from each experiment was calculated from seven technical replicates of different concentrations of the molecule tested with Octet Data Analysis 9.0 (PALL ForteBio, Fremont, CA).
# Central fractions of each of these peaks were examined by Octect-BLI for their ability interact with Lrp6. Kinetics parameters such as kon, koff, and KD for interaction between VHH26 constructs and Lrp6E3E4 domain are listed in Table 2. Analyses of these parameters reveal that the binding affinity towards Lrp6 is least affected in the case of the VHH26-H5 humanized variant compared to the parent VHH26 (Table 2; FIG. 3B).
# [2] = tested on: colon tissue markers (ZO-1, Ki67, Axin2, Cdkn3, S100A9, CD45); assay: RNA in situ hybridization and immunohistochemistry/immunofluorescence of colon tissue, DSS model; type: in vivo, mouse; settings: day 10 of the DSS model
# Excerpt: Expression of mRNA was detected by RNAscope in situ hybridization (ACD Bio). RNAscope probes used are listed below. For colorimetric visualization, standard RNAscope® 2.5 HD Assay-Red protocol (www.acdbio.com) was followed, and images were acquired on a Leica DMi8 microscope equipped with a DFC7000T color camera. For fluorescent RNAscope in situ hybridization, standard RNAscope Multiplex Fluorescent Reagent Kit v2 Assay protocol was followed (ACD Bio Document #323100-USM) and coupled with the TSA Plus Cyanine 3 and 5 Systems. Fluorescent images were acquired with a Leica Thunder imaging system.
# In brief, five-micron thick formalin fixed paraffin embedded tissue sections on slides were deparaffinized followed by citrate buffer (pH 6) antigen retrieval in a steamer. Slides were then washed thoroughly in tap water followed by 1× wash in PBST. Subsequently, tissue sections were blocked with serum free protein block (Agilent, X090930-2) for one hour at room temperature followed by incubation in primary antibodies. After primary antibody incubation, tissue sections were washed in 0.1% TX-100 in PBS (PBST) at least three times followed by incubation in secondary antibody. Afterwards, tissue sections were washed with PBST, and coverslips were mounted with Vectashield Vibrance antifade mounting medium with DAPI (Vector Laboratories, H-1800).
# [3] = tested on: DSS induced acute colitis in C57BL6/J mice; assay: DSS induced acute colitis model; type: in vivo, mouse; settings: IP twice weekly or daily starting on day 4 of DSS
# Method: 7- to 8-week-old female C57BL6/J mice were fed with 4% (wt/vol) Dextran Sulfate Sodium (DSS, MP Biomedicals, molecular weight 36-50 kDa, Ref #160110) in drinking water from day 1 to day 7 to induce colitis and were switched to 1% DSS from day 8. […] Animals were terminated on day 10, allowing a 6-day course of protein treatment, and the colon was harvested for histology and RT-qPCR. […] The disease activity index (DAI) was calculated based on the average score of weight loss, stool consistency and the degree of intestinal bleeding (Wirtz Stefan et al., 2017). Scoring system by grading was on a scale of 0 to 4 using the following parameters: loss of weight (0, 0-1%; 1, 1-6%; 2, 6-12%; 3, 12-18%; 4, >18%), stool consistency (0, normal; 1, soft but still formed; 2, soft; 3, very soft, wet; 4, watery diarrhea) and intestine bleeding (0-1, negative hemoccult; 2, positive hemoccult; 3, blood traces in stool visible; 4, gross rectal bleeding).
# Small intestine and colon were extracted and, after removing fecal content, weighted and length measured. The desired small intestine segments (duodenum, jejunum, ileum) and colon segments (ascending, transverse and descending colon) were cut out and fixed directly in 10% neutral buffered formalin (NBF) overnight. Tissues were then transferred to 70% ethanol before paraffin embedding. Paraffin tissue blocks were then sectioned to […] thickness and stained with hematoxylin and eosin (H&E) for histology analysis. Pathology reading was performed by an independent pathologist.
# […] Groups of mice were either untreated, treated with an isotype control antibody (anti-GFP), or treated with the indicated engineered Wnt agonist once on day 4 or twice on day 4 and 7. […]
# The 123 mice total were grouped: (Day3=13, day4=13, day5=26, day6=24, day7=26, day10=21), with 91 used for histology endpoints, and 21 for scRNA-seq (group eliminated because of machinery). Daily food intake, BW, fecal score, and occult blood were measured. […]
# [4] = SEC fraction C1/G1 (parental D3)
# [5] = SEC fraction C3/G3 (parental D3)
Molecule,"koff [1, 4]","kon [1, 4]","koff [1, 5]","kon [1, 5]",Ki67 expression in duodenum and colon [2],repair of damaged colon epithelium / colon histology [3]
"VHH26 (parental): parental camelid LRP6 binding VHH, SEQ ID NO: 25 (protein, VHH26 (parental)) VHH: DVQLVESGGGLVQAGGSLRLACAGSGRIFAIYDIAWYRHPPGNQRELVAMIRPVVTEIDYADSVKGRFTISRNNAMKTVYLQMNNLKPEDTAVYYCNAKRPWGSRDEYWGQGTQVTVSS",1.77E−02,8.10E+05,1.82E−02,1.05E+06,,
"VHH26-H4: humanized variant of LRP6 binding VHH26, SEQ ID NO: 22 [VHH26-H4] (protein, VHH26_H4) VHH: EVQLVESGGGLVQPGGSLRLSCAGSGRIFAIYDIAWYRQAPGKGRELVAMIRPVVTEIDYADSVKGRFTISRDNSKNTVYLQMNSLRAEDTAVYYCNAKRPWGSRDEYWGQGTTVTVSS",9.51E−02,1.44E+05,5.56E−03,2.90E+04,,
"VHH26-H2: humanized variant of LRP6 binding VHH26, SEQ ID NO: 20 (protein, VHH26_H2) VHH: EVQLVESGGGLVQPGGSLRLSCAGSGRIFAIYDIAWYRQAPGKGLEWVAMIRPVVTEIDYADSVKGRFTISRDNSKNTVYLQMNSLRAEDTAVYYCNAKRPWGSRDEYWGQGTTVTVSS",6.53E−02,1.48E+05,6.84E−02,2.44E+05,,
"VHH26-H5: humanized variant of LRP6 binding VHH26, SEQ ID NO: 23 (protein, VHH26_H5) VHH: EVQLVESGGGLVQPGGSLRLSCAGSGRIFAIYDIAWYRQAPGKGREWVAMIRPVVTEIDYADSVKGRFTISRDNSKKTVYLQMNSLRAEDTAVYYCNAKRPWGSRDEYWGQGTTVTVSS",1.77E−02,4.28E+05,1.47E−02,1.35E+05,,
"VHH26-H3: humanized variant of LRP6 binding VHH26, SEQ ID NO: 21 (protein, VHH26_H3) VHH: EVQLVESGGGLVQPGGSLRLSCAGSGRIFAIYDIAWYRQAPGKGREWVAMIRPVVTEIDYADSVKGRFTISRDNSKNTVYLQMNSLRAEDTAVYYCNAKRPWGSRDEYWGQGTTVTVSS",5.22E−02,1.63E+04,7.75E−03,1.84E+04,,
"VHH26-H1: humanized variant of LRP6 binding VHH26, SEQ ID NO: 19 (protein, VHH26_H1) VHH: EVQLLESGGGLVQPGGSLRLSCAASGRIFAIYDIAWVRQAPGKGLEWVSMIRPVVTEIDYADSVKGRFTISRDNSKNTLYLQMNSLRAEDTAVYYCAKKRPWGSRDEYWGQGTTVTVSS",,,3.98E−03,1.42E+04,,
"VHH26-H6: humanized variant of LRP6 binding VHH26, SEQ ID NO: 24 [VHH26-H6] (protein, VHH26_H6) VHH: EVQLVESGGGLVQPGGSLRLSCAGSGRIFAIYDIAWYRQAPGKGRELVAMIRPVVTEIDYADSVKGRFTISRDNSKKTVYLQMNSLRAEDTAVYYCNAKRPWGSRDEYWGQGTTVTVSS",3.11E−02,4.52E+04,8.36E−03,1.72E+04,,
"RSPO2: R-spondin 2, ligand that amplifies WNT signals (protein, UniProt Q6UXX9 22-243, looked up) R-spondin-2: QGNRWRRSKRASYVSNPICKGCLSCSKDNGCSRCQQKLFFFLRREGMRQYGECLHSCPSGYYGHRAPDMNRCARCRIENCDSCFSKDFCTKCKVGFYLHRGRCFDECPDGFAPLEETMECVEGCEVGHWSEWGTCSRNNRTCGFKWGLETRTRQIVKKPVKDTILCPTIAESRRCKMTMRHCPGGKRTPKAKEKRNKKKKRKLIERAQEQHSVFLATDRANQ",,,,,expansion of Ki67 expression,less significant as compared to the effect of R2M3-26
